B1: wild-type recombinant mouse MASP-3 fused with PA-tag (WT rmMASP-3-PA) [mouse] / mouse collectin kidney 1 (CL-K1) [mouse (endogenous in serum of C57BL/6J mice)] (parent)
chain 1: HTVELNEMFGQIQSPGYPDSYPSDSEVTWNITVPEGFRIKLYFMHFNLESSYLCEYDYVKVETEDQVLATFCGRETTDTEQTPGQEVVLSPGTFMSVTFRSDFSNEERFTGFDAHYMAVDVDECKEREDEELSCDHYCHNYIGGYYCSCRFGYILHTDNRTCRVECSGNLFTQRTGTITSPDYPNPYPKSSECSYTIDLEEGFMVSLQFEDIFDIEDHPEVPCPYDYIKIKAGSKVWGPFCGEKSPEPISTQTHSVQILFRSDNSGENRGWRLSYRAAGNECPKLQPPVYGKIEPSQAVYSFKDQVLVSCDTGYKVLKDNEVMDTFQIECLKDGAWSNKIPTCKIVDCGAPAGLKHGLVTFSTRNNLTTYKSEIRYSCQQPYYKMLHNTTGVYTCSAHGTWTNEVLKRSLPTCLPVCGQPSRALPNLVKRIIGGRNAELGLFPWQALIVVEDTSRVPNDKWFGSGALLSESWILTAAHVLRSQRRDNTVIPVSKEHVTVYLGLHDVRDKSGAVNSSAARVILHPDFNIQNYNHDIALVQLQKPVPLGAHVMPICLPRPEPEGPAPHMLGLVAGWGISNPNVTVDEIILSGTRTLSDVLQYVKLPVVSHAECKASYESRSGNYSVTENMFCAGYYEGGKDTCLGDSGGAFVIFDEMSQHWVAQGLVSWGGPEECGSKQVYGVYTKVSNYVDWLWEEMNSPRAVRDLQVER
chain 2: QQTTEDACSVQILVPGLKGDAGEKGDKGAPGRPGRVGPTGEKGDMGDKGQKGTVGRHGKIGPIGAKGEKGDSGDIGPPGPSGEPGIPCECSQLRKAIGEMDNQVTQLTTELKFIKNAVAGLRETESKIYLLVKEEKRYADAQLSCQARGGTLSMPKDEAANGLMASYLAQAGLARVFIGINDLEKEGAFVYSDRSPMQTFNKWRSGEPNNAYDEEDCVEMVASGGWNDVACHITMYFMCEFDKENL
B2: wild-type recombinant mouse MASP-3 fused with PA-tag (WT rmMASP-3-PA) [mouse] / mouse ficolin-A [mouse (endogenous in serum of C57BL/6J mice)] (parent)
chain 1: B1 chain 1
chain 2: SQALGQERGACPDVKVVGLGAQDKVVVIQSCPGFPGPPGPKGEPGSPAGRGERGFQGSPGKMGPAGSKGEPGTMGPPGVKGEKGDTGAAPSLGEKELGDTLCQRGPRSCKDLLTRGIFLTGWYTIHLPDCRPLTVLCDMDVDGGGWTVFQRRVDGSIDFFRDWDSYKRGFGNLGTEFWLGNDYLHLLTANGNQELRVDLQDFQGKGSYAKYSSFQVSEEQEKYKLTLGQFLEGTAGDSLTKHNNMSFTTHDQDNDANSMNCAALFHGAWWYHNCHQSNLNGRYLSGSHESYADGINWGTGQGHHYSYKVAEMKIRAS

Variants of: B1
Experiment: immunoprecipitation with anti-PA tag antibody beads from mouse serum, Western blot band intensity
Details: with mouse collectin kidney 1 (CL-K1) [mouse (endogenous in serum of C57BL/6J mice)]; TBS containing 7 mM MgCl2 and 5 mM CaCl2 (TBS/Mg/Ca); parent: 1; read off a plot
chain 1 D102A gave a ratio to parent of 0.03. chain 1 E49A showed a ratio to parent of 0.02. chain 1 H218A was tested, and the ratio to parent was 0.04. In the case of chain 1 Y225A, the ratio to parent is reported as 0.07.

Variants of: B2
Experiment: as above
Details: with mouse ficolin-A [mouse (endogenous in serum of C57BL/6J mice)]; TBS containing 7 mM MgCl2 and 5 mM CaCl2 (TBS/Mg/Ca); parent: 1; read off a plot
Work on chain 1 D102A yielded a ratio to parent of 0.04. Variant chain 1 E49A has a ratio to parent of 0.09. Work on chain 1 H218A yielded a ratio to parent of 0.04. Work on chain 1 Y225A yielded a ratio to parent of 0.06.

From article PMC9425028
